Results on 1 molecule are retold here after patent US8772229B2, “Methods for synthesis and uses of inhibitors of ghrelin O-acyltransferase as potential therapeutic agents for obesity and diabetes” (The Johns Hopkins University, priority 2008, dated 2014).

Data set [1] has as its target T1, p300 HAT (Homo sapiens, UniProt Q09472).
T1 construct: Recombinant acetyltransferase domains and histone tail peptides were prepared as described previously (38-40); made in house
T1 sequence (Q09472 1287-1663 limits assumed): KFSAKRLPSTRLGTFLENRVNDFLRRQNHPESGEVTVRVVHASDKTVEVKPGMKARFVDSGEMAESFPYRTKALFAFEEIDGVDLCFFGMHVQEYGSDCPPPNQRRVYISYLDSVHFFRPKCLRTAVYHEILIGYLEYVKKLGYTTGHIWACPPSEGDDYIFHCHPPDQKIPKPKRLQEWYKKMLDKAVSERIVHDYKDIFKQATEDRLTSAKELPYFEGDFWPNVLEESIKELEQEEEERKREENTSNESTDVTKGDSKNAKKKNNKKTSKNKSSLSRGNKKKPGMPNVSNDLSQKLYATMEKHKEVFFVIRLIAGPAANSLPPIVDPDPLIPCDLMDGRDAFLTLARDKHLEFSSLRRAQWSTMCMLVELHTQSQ
Put plainly: Acetyltransferase specificity assay (α-KGDH coupled), p300. The data set is classed as biochemical. The protocol: (§1) The specificity of GO-CoA-Tat with the acetyltransferases p300, PCAF, and AANAT was measured using an α-ketoglutarate dehydrogenase (α-KGDH) coupled spectrophotometric assay (37). Recombinant acetyltransferase domains and histone tail peptides were prepared as described previously (38-40). The production of CoASH by the acetyltransferase is coupled to the formation of NADH, which is monitored at 340 nm (ε340=6230 M^−1 cm^−1) in a Beckman DU-640 spectrophotometer. All reactions contain 200 μM thiamine pyrophosphate, 5 mM MgCl2, 1 mM DTT, 50 μg/mL BSA, 200 μM NAD, 2.4 mM α-ketoglutarate, 10 μM GO-CoA-Tat, and 50 μM acetyl-CoA. Reactions with p300 were performed in 100 mM HEPES, pH 7.9, and contain 0.1 units α-KGDH and 200 μM H4-15, a 15-mer peptide substrate based on the sequence of the histone H4 tail. p300 reactions are incubated at 30° C. prior to initiation with addition of 100 nM p300 and take place at 30° C. Reactions with PCAF are performed in 100 mM HEPES, pH 7.9, and contain 0.037 units α-KGDH and 100 μM H3-20, a 20-mer peptide substrate based on the sequence of the histone H3 tail. PCAF reactions are incubated at 30° C. for 10 minutes prior to initiation with addition of 100 nM PCAF and take place at 30° C. Reactions with AANAT are performed in 100 mM NH4OAc, pH 6.8, and contain 0.1 units α-KGDH and 200 μM tryptamine. […]

Data set [2] has as its target T2, PCAF HAT (Homo sapiens, UniProt Q92831).
T2 construct: Recombinant acetyltransferase domains and histone tail peptides were prepared as described previously (38-40); made in house
Put plainly: Acetyltransferase specificity assay (α-KGDH coupled), PCAF. The data set is classed as biochemical. On the procedure: as §1

Data set [3] deals with T3, serotonin N-acetyltransferase (Ovis aries, UniProt Q29495).
T3 construct: Recombinant acetyltransferase domains and histone tail peptides were prepared as described previously (38-40); made in house
Nature of the data set: Acetyltransferase specificity assay (α-KGDH coupled), AANAT. The data set is classed as biochemical. The protocol:
as §1

Data set [4] deals with HEL cell. Put plainly: Cell viability assay (LIVE/DEAD), HEL cells. It is filed as cell-based, human. The note with it: 10 μM, 24 hr incubation. On the procedure: (§2) The viability of the HEL cell line and the human immortalized hepatocyte cell line HepG2 (ATCC, Manassas, Va.) treated with the varying concentrations of GO-CoA-Tat was determined using a LIVE/DEAD viability assay kit (Molecular Probes). […] were incubated with two probes, 2 μM calcein-AM (green color) for 30 min and 4 μM ethidium homodimer-1 (EtdD-1, bright red color) for 10 min, for intracellular esterase activity and plasma membrane integrity, respectively. Calcein-AM was excited using the 500 nm laser line, and the emitted fluorescence was detected through a 535 nm long-pass filter. EtdD-1 was excited using the 514 nm laser line, and the emitted fluorescence was detected through a 550 nm long-pass filter. Red fluorescent (EtdD-1) cells were counted as dead, and green fluorescent (Calcein-AM) were counted as viable. In cases of dual partial red and green staining, cells were counted as dead.

Data set [5] has as its system HEPG2 cell. Put plainly: Cell viability assay (LIVE/DEAD), HepG2 cells. It is filed as cell-based, human. As to conditions: 10 μM, 24 hr incubation. On the procedure:
as §2

A short description of data set [6]: Blood chemistries and blood cell counts after 12 days of treatment. The note with it: 12 day treatment. The data set is classed as in vivo, mice. The text has this: To investigate the potential for GO-CoA-Tat induced generalized toxicity or organ damage as a source of weight loss, we assessed the blood chemistries and blood cell counts in the 12 day GO-CoA-Tat treated animals.

T3 sequence (Q29495 35-196 limits assumed): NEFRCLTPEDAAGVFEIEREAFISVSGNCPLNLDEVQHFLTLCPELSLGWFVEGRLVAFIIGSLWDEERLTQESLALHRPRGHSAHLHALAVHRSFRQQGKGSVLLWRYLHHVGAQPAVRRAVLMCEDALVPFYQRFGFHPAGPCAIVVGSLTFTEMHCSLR
T2 sequence (Q92831 503-651 limits assumed): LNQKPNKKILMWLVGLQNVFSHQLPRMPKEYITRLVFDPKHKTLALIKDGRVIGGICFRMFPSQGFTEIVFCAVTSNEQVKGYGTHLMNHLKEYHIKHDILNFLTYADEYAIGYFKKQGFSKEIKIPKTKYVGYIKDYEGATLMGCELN

As usually defined, the inhibition is the change of the read-out against control, counted positive when it falls. The low end stands for a response near the control, the high end for a response far below the control. For `CCCCCCC(SCCNC(=O)CCNC(=O)[C@H](O)C(C)(C)COP(=O)(O)OP(=O)(O)OC[C@H]1O[C@@H](n2cnc3c(N)ncnc32)[C@H](O)[C@@H]1OP(=O)(O)O)C(=O)NC[C@H](NC(=O)[C@H](CO)NC(=O)CN)C(=O)N[C@@H](Cc1ccccc1)C(=O)N[C@@H](CC(C)C)C(=O)N[C@@H](CO)C(=O)N1CCC[C@H]1C(=O)N[C@@H](CCC(=O)O)C(=O)N[C@@H](Cc1c[nH]cn1)C(=O)N[C@@H](CCC(N)=O)C(=O)NCCCCCC(=O)N[C@@H](Cc1ccc(O)cc1)C(=O)NCC(=O)N[C@@H](CCCNC(=N)N)C(=O)N[C@@H](CCCCN)C(=O)N[C@@H](CCCCN)C(=O)N[C@@H](CCCNC(=N)N)C(=O)N[C@@H](CCCNC(=N)N)C(=O)N[C@@H](CCC(N)=O)C(=O)N[C@@H](CCCNC(=N)N)C(=O)N[C@@H](CCCNC(=N)N)C(=O)N[C@@H](CCCNC(=N)N)C(=O)O` (some centres unmarked) [GO-CoA-Tat], the inhibition at 10 µM in data set [1], in data set [2] and in data set [3] was less than 15% throughout. Also, the HEL cell viability result in data set [4] is “non-toxic”. For the same molecule, the HEPG2 cell viability entry in data set [5] is recorded as “non-toxic”. The “organ toxicity from blood chemistries and blood cell counts” value in data set [6] (29 mg/kg IP daily) is recorded as “no evidence of liver, renal, pancreas, or bone marrow toxicities”. For the same molecule, the HDL result in data set [6] (vs. D4-Tat) is on record as “small but significant increases”. In addition, the triglycerides result in data set [6] (vs. D4-Tat) is “small but significant increases”.
